{"source": "patent US20220170056A1", "about": "“COMPOSITIONS AND METHODS FOR BIOSYNTHESIS OF […] CANNABINOIDS IN A HE[…]” (INMED PHARMACEUTICALS INC., priority 2019, published 2022)", "molecules": {"B1": {"name": "IspEF fusion: non-natural fusion, E. coli IspE linked by flexible linker (FL) to E. coli IspF (protein)", "chain": "MRTQWPSPAKLNLFLYITGQRADGYHTLQTLFQFLDYGDTISIELRDDGDIRLLTPVEGVEHEDNLIVRAARLLMKTAADSGRLPTGSGANISIDKRLPMGGGLGGGSSNAATVLVALNHLWQCGLSMDELAEMGLTLGADVPVFVRGHAAFAEGVGEILTPVDPPEKWYLVAHPGVSIPTPVIFKDPELPRNTPKRSIETLLKCEFSNDCEVIARKRFREVDAVLSWLLEYAPSRLTGTGACVFAEFDTESEARQVLEQAPEWLNGFVAKGANLSPLHRAMLSLGGGGSAAAMRIGHGFDVHAFGGEGPIIIGGVRIPYEKGLLAHSDGDVALHALTDALLGAAALGDIGKLFPDTDPAFKGADSRELLREAWRRIQAKGYTLGNVDVTIIAQAPKMLPHIPQMRVFIAEDLGCHMDDVNVKATTTEKLGFTGRGEGIACEAVALLIKATK"}, "B2": {"name": "pcaK: MFS aromatic acid antiporter amplified from Pseudomonas putida KT2440 (protein, UniProt Q51955 1-448, looked up)", "4-hydroxybenzoate transporter …": "MNQAQNSVGKSLDVQSFINQQPLSRYQWRVVLLCFLIVFLDGLDTAAMGFIAPALSQEWGIDRASLGPVMSAALIGMVFGALGSGPLADRFGRKGVLVGAVLVFGGFSLASAYATNVDQLLVLRFLTGLGLGAGMPNATTLLSEYTPERLKSLLVTSMFCGFNLGMAGGGFISAKMIPAYGWHSLLVIGGVLPLLLALVLMVWLPESARFLVVRNRGTDKIRKTLSPIAPQVVAEAGSFSVPEQKAVAARSVFAVIFSGTYGLGTMLLWLTYFMGLVIVYLLTSWLPTLMRDSGASMEQAAFIGALFQFGGVLSAVGVGWAMDRYNPHKVIGIFYLLAGVFAYAVGQSLGNITVLATLVLIAGMCVNGAQSAMPSLAARFYPTQGRATGVSWMLGIGRFGAILGAWSGATLLGLGWNFEQVLTALLVPAALATVGVIVKGLVSHADAT"}, "B3": {"name": "IspDF2: novel bifunctional IspD-IspF fusion from soil metagenome fosmid NR0032_O07, 42.1 kDa (protein)", "chain": "MQVTAIIAAGGRGRRFGGGVPKQLVGVGGRPILERTVAAFLGHPAIHEVVVALPAELMADPPAYLRAAPKPIRLVAGGVQRQDSVRQAFQAANEQSDVIVIHDAARPFASADLISRTIAAAAEGGAALAAVPARDTVKRGAFAAGRTGPAGRQAVEGAPLLVVAETLPRDSIYLAQTPQAFRRDVLRDALALGEAGSEATDEATLAERAGHIVRLVEGEPANIKITTPDDLLVAFRIGAGYDLHRLVEGRPLVLGGVTIPFERGLLGHSDADAICHAVTDAVLGAAAAGDIGRHFPDSDPKWRDWSSIDLLRRASAIVKGRGYAIANVDAVVIAERPKLAPFLDEMRANVAGAIGIAVDAVGIKGKTNEGLGELGRGEAIAVHAVALLHL"}, "B4": {"name": "IspDF3: novel bifunctional IspD-IspF fusion from soil metagenome fosmid NR0037_N05, 40.2 kDa (protein)", "chain": "MVHVSAIIAAGGRGERFGGPQPKQLLLLGGVPILKRTVDAFLRGYPFIEVIVALPAEFVANPPDYLDDVIVVEGGARRQDSVANAFRAVAPSAQVVVIHDAARPLVTPSLIERTVDAAVKHGAAIAALRATDTVKRGDASRVIRGTLPRDEIFLAQTPQAFRAGVLRDALALAASAADATDEAMLAEQAGHHVRLVDGDPRNLKITTPEDLEMRIGNGYDLHRLVTGRPLVLGGVTIPFEKGLQGHSDADAVCHAITDAILGAASAGDIGRHFPDTDPAWKDAKSIVLLQQAAQIVSRAGYAIANLDVVVIAQQPKLVPHIDAIRHSVAHALGIDVQQVSVKGKTNEGVDSMGAGESIAVHAVALLQHS"}}, "key": {"MEP pathway flux": {"system": "MEP pathway flux", "experiment": "Lycopene production (MEP pathway flux) in recombinant E. coli", "type": "cell-based, E. coli BL21(DE3)", "settings": "for terpene titer (lycopene and isoprene), in words: IspDF2 and IspDF3 versions of the Dxs-IspDF-Idi chassis, FIG. 18", "experimental": "Both isoprene and lycopene starter cultures were cultivated overnight at 30° C. in LB media (Sigma-Aldrich) containing appropriate antibiotic/s. Isoprene starter cultures were then diluted to 15 mL with the medium to OD600 of 0.2, induced with arabinose and/or IPTG; and allowed to grow for 24 h at 30° C. in 25 mL sealed glass tube. Lycopene starter cultures were diluted to 5 mL with the medium to OD600 of 0.2, induced with IPTG, and allowed to grow for 24 h at 30° C. in culture tubes in the dark.\nLycopene is an intracellular product. 2 mL of cell culture was centrifuged at 8000 rpm for 5 min and lycopene was extracted by extraction from the pellet with 1 mL acetone. Extraction was performed at 55° C. with intermittent vortexing for 20 min in reduced light condition. The acetone suspension was centrifuged and filtered before analysis. Samples were analyzed on the PerkinElmer Flexar system equipped with Zorbax C-18 column (4.6×250 mm, Agilent Technologies) maintained at 30° C. Samples were run with mobile phase consisting of 66% (v/v) methanol, 30% (v/v) tetrahydrofuran and 4% (v/v) water at 1 mL/min flow rate. Lycopene detection was done by monitoring absorbance at 474 nm wavelength using a photodiode detector."}, "E. coli [1]": {"system": "E. coli", "experiment": "CBGA production in E. coli expressing NphB variant and transporter, fed OA", "type": "cell-based", "settings": "cells expressing NphB variant; compared to control cell not expressing a heterologous transporter (FIG. 9)", "experimental": "(§1) The following experimental host cells were tested: (1) E. coli transformed with plasmids encoding arabinose inducible transporters pcaK or pp3656; and (2)) E. coli transformed with plasmids encoding arabinose inducible transporters pcaK or pp3656 and B5 plasmid (encoding ispDF1 enzyme, GPPS, and an optimized variant NphB (see, Valliere et al.).\n(§2) Seed cultures of (1) were inoculated from glycerol stock into 5 mL LB with 34 μg/mL chloramphenicol, incubate at 30° C. overnight. Seed cultures of (2) were inoculated from glycerol stock into 5 mL LB with 34 μg/mL chloramphenicol and 50 μg/mL kanamycin, incubate at 30° C. overnight.\nInduction cultures of (2) were inoculated from seed culture into total culture volume 5 mL TB media with 0.5 mM OA, 5 mM MgCl2, and cultured at 30° C. until OD600 of 0.8. Cultures were induced by adding arabinose to a final concentration of 5 mM arabinose and IPTG to a final concentration of 100 μM. During induction, cultures were incubated at 30° C. Induction culture samples were collected at 24 h and 48 hr time points after the start of induction.\n(§3) Cultures first centrifuged at 3000 rpm for 10 m to separate pellet and culture media supernatant fractions. Pellets also washed with PBS twice. Cell pellets lysed with B-PER Complete Reagent following manufacturer's protocol. […] Samples of the cell lysates were analyzed by SDS-PAGE analysis. […]"}, "E. coli [2]": {"system": "E. coli", "experiment": "Olivetolate (OA) uptake into E. coli expressing heterologous transporter", "type": "cell-based", "settings": "24 to 48 hours after induction; compared to BL21 control without additional transporters (FIG. 8)", "experimental": "as §1, §2\nInduction cultures of (1) were inoculated from seed culture into total culture volume 5 mL TB media with 0.1 mM OA and cultured at 30° C. until OD600 of 0.8. Cultures were induced by adding arabinose and magnesium to a final concentration of 5 mM arabinose and 5 mM MgCl2. During induction, cultures were incubated at 30° C. Induction culture samples were collected at 24 h and 48 hr time points after the start of induction.\nas §3"}}, "data": [{"molecule": "B1", "values": [{"measurement": "decrease in lycopene production than SALyc-SDFEI", "setting": "MEP pathway flux", "value": "at least 65%"}, {"measurement": "decrease in normalized lycopene titers than SALyc-SDFEI", "setting": "MEP pathway flux", "value": 85, "unit": "%"}, {"measurement": "lycopene production / titers, in words", "setting": "MEP pathway flux; comparison as stated in the sentence (FIGS. 21, 23, 25)", "value": "lowered the lycopene production substantially"}]}, {"molecule": "B2", "values": [{"measurement": "production of CBGA", "setting": "E. coli [1]", "value": "increased production of CBGA"}, {"measurement": "olivetolate uptake inside cells", "setting": "E. coli [2]", "value": "increased olivetolate uptake"}]}, {"molecule": "B3", "values": [{"measurement": "terpene titer (lycopene and isoprene), in words", "setting": "MEP pathway flux", "value": "lowered the titer"}]}, {"molecule": "B4", "values": [{"measurement": "terpene titer (lycopene and isoprene), in words", "setting": "MEP pathway flux", "value": "lowered the titer"}]}]}
